Laboratory results from the nanobody polyreactivity screen of Harvey et al. (2022).

test: yeast display, Sf9 membrane polyspecificity reagent, FACS + sequencing; frameworks hold sequencing errors
In short: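 Galactose-induced (36–48 hours) yeast carrying a synthetic nanobody display library were exposed to 10% biotinylated, detergent-solubilized Sf9 membrane reagent at 4 °C for 1 hour. FACS followed streptavidin microbead enrichment, using low and high (top ~1%) gates for expression (anti-HA) and reagent binding (streptavidin). Colony PCR, MiSeq 2 × 250 sequencing and CDR-length filtering followed. Labels for polyreactivity reflect the gate of origin.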

Sequence | polyreactivity (PSR sort gate)
QVQVLESGGGLVQAGGSLRLSCAASGRTFYWNAMGWYRQAPGKERELDAVISQSGGSTYYADSVKGRFTISRDNAKNTVYLQMNSLQPEDTAVYYCNKATRHHFYYWGQGTQVTVSS | high polyreactivity
QVQVVESGAGEVQAGGSLRLSCAASGSIFPFNAMGWYRQAPGKERELVAAISVNGGSTYYADSVKGRFTISRDNAKNTVYIQMNSLKPEDTAVYYCNTGGTFLDWVRRPFGFGYWGQGTQVTVSS | low polyreactivity
QVQVVESGGALVQAGGSLRLSCAASGSTFYNYAMGWYRPAPGKERELVAAISSGGGITYYADSVKGRFTISRDNAKNNVYVQMNSLKPEDTAFYYCNARRKYLGYNYWGQGTQVTVSS | high polyreactivity
QVQVVESGGGFVQAGGSLRISCAASGRIFATYAMGWYRQAPGKERELVAAISDSGGRTYYADSVKGRFTISRDTAKNTVYFQMNSLKPEDTAVYYCNARGTRASRYDYWGQGTQVTVSS | high polyreactivity
QVQVVESGGGIVHAEGSLRLSCAPSGLTFPVYAMVWYRQAPRKERELVAAISKSGGNTYYADSVKGRFTISRDNAKNTVYLQMNSLKPEDTAVYYCAAGYLSGNYARYGYWGQGTQVTVSS | high polyreactivity
QVQVVESGGGIVQAGGSLGLSCAASGSNFSYNAMGWYRQAPRKERELVATISNTDSTNYADSVKGRFTISRDNAKNTVYLQMNSLKPEDTAVYYCAVVSARIDYEYWGQGTQVTVSS | low polyreactivity
QVQVVESGGGLVHAGGSHRLSCAASGSIFPPYSMGWYRQAPGKEREFVAAISYSGGSTYYADSVKGRFTISRDNGKHTVYFQMNSLKPEDTAVYYCGADRYGFYLESYYWGQGTQGTVSS | low polyreactivity
QVQVVESGGGLVKAGGSLRLSCDASGSTFRDYVMGWYRQAPGKERELVAAITGSGSSTYYADSVKGRFTISRDNAKNSVYLQMNSLKPEDTAVYYCAATWVVSYRVNRSYYWGQGTQVTVSS | low polyreactivity
QVQVVESGGGLVQAGGCLRLSCAASGVIFVGYAMGWYRQAPGKERELVAAISWSGGSTYYADSVKGRFTISRDKAKNTVYLQMNSLKPEDTAVYYCAAYLYGYEYWGQGTQVTVSS | high polyreactivity
QVQVVESGGGLVQAGGRLRLSFAASGFTFESYAMGWYRQAPGKERELVPAISDGGGDTYYADSVKGRFTISRDNAKNTVYLQMNSLKPEDTAVYYCAAEWDGNWSRCAGGYDYWGQGTQVTVSS | low polyreactivity
QVQVVESGGGLVQAGGSLGLSCAASGFTFGRYARGWYRQAPGKERELVAAISRGGSTYYADSVKGRFTISRDNAMYTDYLQMNSLKTEDTAVYYCNAAGLPTQLYYWGQGTQVTVSS | high polyreactivity
QVQVVESGGGLVQAGGSLGLSCAASGRTFRVYAMGWYRQAPGKERELVASITRGGGTYADSVKGRFTISRDNAKNTVYLQMNCLKPEDTAVYYCNARWQRSTGGRQRYDYWGLGTQVTVSS | high polyreactivity
QVQVVESGGGLVQAGGSLRISCAASGRISVVHAMGWYRQAPGKERELVATINSGGSTYADSVKGRFTNSRDNAKNNVFFQMISQIPEDTAFYYCSARTFRISRLDFWGQCTQVTVSS | high polyreactivity
QVQVVESGGGLVQAGGSLRLSCAASGFIFRRYAMGWYRQAPGKEMELVAAINYSGGSTYYADSVKGRFTISRDNEKNTVYLQMKSLKPEDNAVYYCNAYGLRYYEYDYWGQGTQVTVSS | low polyreactivity
QVQVVESGGGLVQAGGSLRLSCAASGFTIFSYAMGWYRQAPGKERELVAAISRRGGSTYYADSVKGRFTISRDNAKNTVYLQMNSLKPEDTAVYYCNAKWTSHGTYAEDYWGQGTQVTVSS | high polyreactivity
QVQVVESGGGLVQAGGSLRLSCAASGGTDYYYAMGWYRQAPGKERELFAAITESGGSTYYADSVKARYTISRDNAKTTVYVQMNSLKPEDTAVYYCNADWRRWYIFSYDYWGQGTQVTVSS | low polyreactivity
QVQVVESGGGLVQAGGSLRLSCAASGLISWLYVMGWYRQAPGKERELVAAIRYSGGRTYYADSVKGRFTISRDNAKNTDYLQMHSLKPEDTAVYYCNALPWALYDSTSIYYYWGQGTQVTVSS | low polyreactivity
QVQVVESGGGLVQAGGSLRLSCAASGRIFNYNAMGWYRQAPGKERELVAAITRSGGSTYYADSVKGRFTISRDNAKNTVFLQMNSLKPEDTAVYYCNKRYIPWAYDYWGQGTQVTVSS | high polyreactivity
QVQVVESGGGLVQAGGSLRLSCAASGRILYPYTMGWYRQAPGKERELVAAISYSGGRTYYADSVKGRFTISRDNAKNTVYLQMNRLKPEDTAVYYFNAVFRVRGASQFDYWGQGTQVTVSS | high polyreactivity
QVQVVESGGGLVQAGGSLRLSCAASGRTFFFYAMGWYRQAPGKERELVAGITSRGTRTYYADSVKGRFTISRDNAKNTVYLQMNSLKPEDTAVYYCATDDSRDWLNYWGQGTQVTVSS | low polyreactivity
QVQVVESGGGLVQAGGSLRLSCAASGRTFGPYAMGWFRQAPGKEREFVAAISYSGGSTYYADSVKWRFTISRDNAKNTVYLQMNSLKPEDTAVYYCAAEGDYYDFISPPLDYWGQGTQVTVAS | low polyreactivity

Sequence | polyreactivity (PSR sort gate)
QVQVVESGGGLVQAGGSLRLSCAASGRTFIGNAMGWYRQAPGKERELVAAMSRSGGSTSYADSVKGRFTISRDNAKNTVYLQMNSLKPEDTAVYYCAKGYRGYSYGYWGQGTQVSVSS | high polyreactivity
QVQVVESGGGLVQAGGSLRLSCAASGRTFRKNAMGWYRQAPGKERELVAAISSGGGSTYYADSVKGRFTISRDNAKNSDYLQINSLKPEDTAVYYCAVLVWYYDGYYSSYDYWGQGTQVTVSS | high polyreactivity
QVQVVESGGGLVQAGGSLRLSCAASGSIFGRYAMGWYRQAPGKERELVAGITRGGSPYYADSVKGRFTISRDNAKNTVYLQMNSLKPEDTAVYYCNRAARYGEYDYWGQGTQVTVSS | high polyreactivity
QVQVVESGGGLVQAGGSLRLSCAASGSIFHNNAMGWYRQAPGKERELVASITSRGGSTYYADSVKGRFTISRDNAKNTVYLQMNSLKPEDTAVYYCAARPYARVKTHGYWGQGTQVSVSS | low polyreactivity
QVQVVESGGGLVQAGGSLRLSCAASGSTFPVYAMGWYRQAPGKERELVAAISRSGASTYADSVKGRFTISRDNAKNTVYLQMNSLKPEDTAVYYCNKDPGNVSSYTGGGYWGQGTQVTVSS | low polyreactivity
QVQVVESGGGLVQAGGSLRLSCAASGSTFRYYAMGWYRQAPGKERELVAGISKVGGRTYADSVKGRFTISRDNAKYTVYLQMNSLKTEDTAVYYCAADAVRRTPGYDYWGHGTQVTVSS | high polyreactivity
QVQVVESGGGLVQAGGSLRLSCAASGSTFSSYVMGWYRQATGKERELVAAISSIGGSTYYADSVKGRFTISRDNAKITVYLQMNSLKPEDTAVYYCAAEPPGSTYEGGYWGQGTQVTVSS | low polyreactivity
QVQVVESGGGLVQAGGSLRLSCAPSGRIFTIYVMGWYRQAPGKERELVATITYSSGSTTYADSVKGRFTISRDNAKNTVYLQMNSLKPEDTAVYYCAKKYYTGYGYWGQGTQVTVSS | low polyreactivity
QVQVVESGGGLVQAVGSLRLSCAASGRIFRGNAMGWDRQAPRKERELVAAISRRSGSTYYADSVKGRFTISRDNAKNTVYLQMNSLIPEDTAVYYCAATSSLGDFSYDSWGQGTQVTESS | high polyreactivity
QVQVVESGGGLVQPGGSLRLSCAASGSTFGGKAMGWYRQATGKERELVAGITSSGTSTYYADSVKGRFTISRDNAKNTVFLQMNSLKPEDTAVYYCATDEAVESYGFELFDYWGQGTQVTVSS | low polyreactivity
QVQVVESGGGLVQPGGSLRVSCAASGSTFIAYVKGWSRQAPGKEWELVAAISWSGSNTYYADSVKGRFTISRDNAKITVYFQMNCLKPEDTAVYYCNARSFAPDKKYDYWGQGTQVTVSS | low polyreactivity
QVRLVESAGGIVQAGGSLRLSCAASGRTFSVHAMGWYTQAPGKERELVAAISWDGGSTYYGDSVKGRFTISRDNSKNTVYLQMNSLKPEDTAVYYCYKELYYAYDYWGLGTQVTVSS | low polyreactivity
QVRLVESGGGLVQAGGSLRLSCAASGRIFLYNARGWYRQAPGKERELVAAINLSDVDTYYADSVKGRFTISRDNAKNTVYLQMNSLKPEDTAVYYCAADGIYWSTIGYYWGQGTQVTVSS | low polyreactivity
QVWLQESGGGLVQACGSLRLSCAASGTISRDIFMGWYRQAPGKEREFVATIAQGGITNYADSVKGRFTISRDNAKNTLYLQMNSVKPGDTAVYYCAARDGNCYWFYYWGQGTQVTVSS | high polyreactivity
QVWLQESGGGLVQACGSLRLSCAASGTISRDIFMGWYRQAPGKEREFVATIAQGGITNYADSVKGRFTISRDNAKNTVYLQMNSVKPGDTAVYYCAARDGNCYWFYYGGQGTQVTVSS | high polyreactivity
QYQLVESGGGLVQAGGSLRLICAASGRIINKKAMGRYRHAPGKERELVAAITSSGGSTYYADSVKGRFTISRDNAKNTVYLQMNSLKPEDTAVYYCAAYAYGRFGKLNYWGQGTQVTVSS | low polyreactivity
QYQLVESGGGLVQAGGSLRLSCAASGSTFRANTMGWYRQAPGKERELVSTITRGTITKYADSVKGRFTISRDNAKNPVYLQMNSLKAEDTAVFDCAVDQAYVRRNWGYTGYVTYDHWGQGTQVTVSS | high polyreactivity
QYQLVESGGGLVQAGGSLSLSCAASATTFSAYAMGWYRQAPGKERELVAAISASGGSTYYADSVKGRFTISRDNAKNTVYLQMNSLKPEDNAVYFCNADRWKYELDYCGQGTQVTVSS | high polyreactivity
RVQLQESGGGLVQAGGSLRLSCAASGNIFDTDIMGWYRQAPGKESELVASITDGGSTTYADSEKGRFTISRDNAKNTVYLQMNSLKPEDTAVYYCAADQGRYGIIGWDDYWGQGTQVTVSS | low polyreactivity
RVQLQESGGGLVQAGGSLRLSCAASGTIFIRGDMGWYRQAPGKEREFVASIDTGSNTYYADSEKGRFTISRDNAKNAVYLQMNCLKPGDTAVYYCVVDYQLSGRLRYWGQGTQVTLSS | low polyreactivity
RVQLVESGGGLVQAGGSLRLSCAASGSIFRGYAMGWYRQAPGKERGLVAAITSGGSTNYADSVKGRFTISRDNAKNTVYLQMNSLKPEDTAVYYCAKDLALVAPLSDYWGQGTQVTVSS | low polyreactivity
